Earlier results, collected in publication PMC7248048.

How the values were obtained:
[1] = target: Fibronectin (Homo sapiens) (UniProt P02751)
[2] = target: Vitronectin (Homo sapiens) (UniProt P04004)
Sequence of UniProt P04004 (P04004 399-478): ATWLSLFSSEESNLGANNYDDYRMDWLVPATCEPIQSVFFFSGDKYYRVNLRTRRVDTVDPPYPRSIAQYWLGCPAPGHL

Sequence of UniProt P02751 (P02751 32-2477): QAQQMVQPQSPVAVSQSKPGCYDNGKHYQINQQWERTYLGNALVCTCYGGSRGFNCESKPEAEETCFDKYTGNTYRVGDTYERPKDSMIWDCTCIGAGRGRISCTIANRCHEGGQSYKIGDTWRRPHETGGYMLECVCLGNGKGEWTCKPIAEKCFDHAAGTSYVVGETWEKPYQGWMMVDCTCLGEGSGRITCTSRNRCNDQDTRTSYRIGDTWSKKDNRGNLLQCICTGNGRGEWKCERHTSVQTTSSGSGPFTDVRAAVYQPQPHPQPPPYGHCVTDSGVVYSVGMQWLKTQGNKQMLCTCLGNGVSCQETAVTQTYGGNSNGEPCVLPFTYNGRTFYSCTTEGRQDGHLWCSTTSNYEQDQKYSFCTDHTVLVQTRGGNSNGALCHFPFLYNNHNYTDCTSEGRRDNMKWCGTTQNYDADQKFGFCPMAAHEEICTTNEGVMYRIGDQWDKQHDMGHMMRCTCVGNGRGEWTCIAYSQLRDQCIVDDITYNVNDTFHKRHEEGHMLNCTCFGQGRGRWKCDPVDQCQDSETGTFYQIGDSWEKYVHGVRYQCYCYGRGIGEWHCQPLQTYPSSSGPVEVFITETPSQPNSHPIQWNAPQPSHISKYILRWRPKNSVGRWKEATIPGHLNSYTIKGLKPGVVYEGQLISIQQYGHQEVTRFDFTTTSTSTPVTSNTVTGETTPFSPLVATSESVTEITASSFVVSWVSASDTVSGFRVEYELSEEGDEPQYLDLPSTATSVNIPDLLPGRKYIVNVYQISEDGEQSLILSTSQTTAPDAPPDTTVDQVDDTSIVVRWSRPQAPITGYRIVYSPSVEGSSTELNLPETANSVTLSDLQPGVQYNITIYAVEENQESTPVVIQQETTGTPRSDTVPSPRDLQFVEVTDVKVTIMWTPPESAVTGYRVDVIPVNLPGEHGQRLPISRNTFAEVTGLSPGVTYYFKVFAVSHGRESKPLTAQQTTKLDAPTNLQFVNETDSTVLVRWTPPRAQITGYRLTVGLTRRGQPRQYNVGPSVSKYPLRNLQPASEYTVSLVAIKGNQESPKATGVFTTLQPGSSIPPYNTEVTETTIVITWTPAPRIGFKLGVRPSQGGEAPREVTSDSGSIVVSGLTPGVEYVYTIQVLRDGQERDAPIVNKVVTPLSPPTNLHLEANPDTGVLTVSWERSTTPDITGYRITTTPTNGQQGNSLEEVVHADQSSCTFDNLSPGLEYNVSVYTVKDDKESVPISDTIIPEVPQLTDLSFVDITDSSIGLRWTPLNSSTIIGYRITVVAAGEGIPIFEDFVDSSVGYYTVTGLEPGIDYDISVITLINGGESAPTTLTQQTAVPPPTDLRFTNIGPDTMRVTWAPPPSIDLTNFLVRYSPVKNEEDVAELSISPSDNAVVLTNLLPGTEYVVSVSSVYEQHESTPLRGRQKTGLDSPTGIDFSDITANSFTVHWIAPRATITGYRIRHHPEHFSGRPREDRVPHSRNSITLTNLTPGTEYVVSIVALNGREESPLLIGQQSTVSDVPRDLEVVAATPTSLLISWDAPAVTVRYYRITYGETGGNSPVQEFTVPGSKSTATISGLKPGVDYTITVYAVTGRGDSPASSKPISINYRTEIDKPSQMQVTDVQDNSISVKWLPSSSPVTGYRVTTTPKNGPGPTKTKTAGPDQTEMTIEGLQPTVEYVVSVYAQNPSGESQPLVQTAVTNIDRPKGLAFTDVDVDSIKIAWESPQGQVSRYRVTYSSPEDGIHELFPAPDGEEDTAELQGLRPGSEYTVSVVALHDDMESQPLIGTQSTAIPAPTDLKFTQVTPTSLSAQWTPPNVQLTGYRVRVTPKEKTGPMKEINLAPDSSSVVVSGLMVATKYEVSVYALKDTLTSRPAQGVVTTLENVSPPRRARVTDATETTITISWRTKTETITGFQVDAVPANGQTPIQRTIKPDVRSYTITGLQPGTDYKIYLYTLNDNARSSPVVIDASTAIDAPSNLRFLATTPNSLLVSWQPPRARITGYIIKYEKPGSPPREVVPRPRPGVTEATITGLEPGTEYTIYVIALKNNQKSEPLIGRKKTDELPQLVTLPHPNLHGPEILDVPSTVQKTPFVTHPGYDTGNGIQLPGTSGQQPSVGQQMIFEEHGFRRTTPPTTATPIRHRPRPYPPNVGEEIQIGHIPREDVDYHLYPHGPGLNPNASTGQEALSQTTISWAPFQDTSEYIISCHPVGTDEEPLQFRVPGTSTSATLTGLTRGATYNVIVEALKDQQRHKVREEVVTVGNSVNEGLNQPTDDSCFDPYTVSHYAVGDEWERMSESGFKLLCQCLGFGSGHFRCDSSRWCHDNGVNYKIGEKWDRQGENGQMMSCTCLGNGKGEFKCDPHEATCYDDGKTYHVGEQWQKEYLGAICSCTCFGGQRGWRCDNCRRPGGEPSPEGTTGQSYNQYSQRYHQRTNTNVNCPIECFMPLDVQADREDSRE

Haemophilus lipoprotein e (P4) (from UniProt P26093)
Kd [1]: 10.2 nM
Kd [2]: 16.5 nM
